# Patent publication US20110092427A1, “POLYPEPTIDE AND PHARMACEUTICAL COMPOSITION CONTAINING THE POLYPEPTIDE” (National University Corporation Hokkaido Universit y, priority 2008, published 2011)
# Peptide text beside a SMILES is read from it.
# What was measured:
# [1] = tested on: psoriasis patient-derived skin grafted onto the back of a mouse; assay: External application to psoriasis patient skin grafted onto SCID mice; assay type: in vivo; conditions: for side effects at the applied sites: 70 μL of 1 mM solution in PBS applied to grafted site daily for 14 days; for thickness of the grafted skin (HE-stained sections): psoriasis skin graft, 70 μL of 1 mM solution applied daily for 14 days, FIG. 6, p<0.05
# Excerpt: The hair in the area of approximately 1 cm^2 in the back of 7 to 8 week-old SCID mice (Clea Japan, Inc.) was shaved, and the full-thickness skin was removed while keeping the vessel plexus intact on the fascia overlying back muscles. The skin of affected area of a psoriasis patient that was sampled under the approval of the ethical code was washed with PBS containing 1% penicillin, 1% streptomycine, and 1% amphotericin B, and each piece of the skin thus treated was separately transplanted onto the skin-removed area of the above-described mice.
# Seven days after transplantation, 70 μL of each of solutions prepared by dissolving polypeptides P5-1, P5-2, and P5-3 into phosphate buffered saline (PBS) (each 1 mM) was applied to the grafted sites of three mice daily for 14 days. […] Further, as a control, the same volumes of PBS solution containing a polypeptide having a random sequence and PBS without polypeptide were applied. After 14 days, a part of the grafted skin was collected and embedded in an optimal cutting temperature (OCT) reagent (Sakura finetechnical Co., Ltd.) and then frozen in liquid nitrogen, which was then prepared as 5 μm-thick sections.
# Also, in accordance with the method of Abe et al. (Am. J. Pathol., 2004, Vol. 164, No. 4, pages 1225-1232), the capillary endothelial cells in the grafted superficial dermis were enumerated by immunoassay employing a rat anti-mouse CD31 antibody using CD31, which was a marker protein of the capillary endothelial cells, as an index.
# [2] = tested on: human osteosarcoma cells, MG63; assay: Inhibition of MG63 tumor cell proliferation, 5-bromo-2' deoxyuridine incorporation; assay type: cell-based; conditions: 100 nM; FIG. 3 and FIG. 4, p<0.01
# Method: (§1) The inhibitory effect of each polypeptide on tumor cell proliferation with respect to human osteosarcoma cells, MG63 (Health Science Research Resources) was measured in accordance with the method described by Takenaka et al. (Life Science, 2005, Vol. 77, pages 3231-3241).
# (§2) Into Dulbecco's modified Eagle's medium (DMEM) supplemented with 10% of fetal bovine serum (FBS) and 100 units/mL penicillin and streptomycin (hereinbelow, simply referred to as a medium), MG63 was suspended. Then, 100 nM commercially available PEDF protein (Sigma) and each of 100 nM polypeptides F1 to F3 prepared in Example 1 “2) Production of polypeptides F1 to F3” were each added per medium, followed by incubation at 37° C. for 24 hours. Subsequently, [^3H] thymidine (Amersham Biosciences Corp.) was added and incubation was carried out for four hours, after which the amount of [^3H] thymidine incorporation by MG63 was measured and the inhibitory effect on tumor cell proliferation was examined.
# Also, by carrying out similar operations to the above, the inhibitory effect on MG63 tumor cell proliferation was examined by measuring the amount of 5-bromo-2′ deoxyuridine (Roche) incorporation with addition of each of 100 nM polypeptides P1 to P6. […]
# [3] = tested on: psoriasis patient-derived skin grafted onto the back of mice; assay: Subcutaneous injection at psoriasis patient skin grafted onto SCID mice; assay type: in vivo; conditions: skin of affected area of a psoriasis patient, 30 μg subcutaneous injection, three times/week for three weeks
# Excerpt: (§3) Further, in a similar manner to the above, the hair in the area of approximately 1 cm^2 in the back of 7 to 8 week old SCID mice (Clea Japan, Inc.) was shaved, and the full-thickness skin was removed while keeping the vessel plexus intact on the fascia overlying back muscles. The skin of affected area of a psoriasis patient and the skin of a normal individual that were sampled under the approval of the ethical code were each washed with PBS containing 1% penicillin and 1% amphotericin B, and each of the skin thus treated was separately transplanted onto the skin-removed area of the above-described mice.
# (§4) Seven days after transplantation, commercially available PEDF protein (30 μg) was given at the grafted site by subcutaneous injection. The injection was administered for three weeks at three times/week. As a control, a mouse given subcutaneous injection of only PBS was used. The day after the last subcutaneous injection, a part of the grafted skin was collected and stained with HE in a similar manner to the above, and the thickness of the grafted skin was measured. The results obtained from the skin of affected area of a psoriasis patient are shown in FIG. 8 (photograph) and FIG. 9, and the results obtained from the skin of a normal individual are shown in FIG. 10 (photograph) and FIG. 11.
# (§5) Also, by carrying out similar operations to the above, the capillary endothelial cells were enumerated using CD31 as an index. The results obtained from the skin of affected area of a psoriasis patient are shown in FIG. 12 and the results obtained from the skin of a normal individual are shown in FIG. 13.
# (§6) Further, the frequency of Ki-67 expressing positive cells, where Ki-67 is a proliferation marker of the basal cell layer, was measured in accordance with the method of Gilhar et al. (Am. J. Pathol., 2006, Vol. 168, No. 1, pages 170 to 175). The results obtained from the skin of affected area of a psoriasis patient are shown in FIG. 14 and the results obtained from the skin of a normal individual are shown in FIG. 15.
# [4] = tested on: normal individual-derived skin grafted onto the back of mice; assay: Subcutaneous injection at normal individual skin grafted onto SCID mice; assay type: in vivo; conditions: skin of a normal individual, 30 μg subcutaneous injection, three times/week for three weeks
# Excerpt: as §3, §4, §5, §6
# [5] = tested on: human osteosarcoma cells, MG63; assay: Inhibition of MG63 tumor cell proliferation, [3H] thymidine incorporation; assay type: cell-based; conditions: 100 nM, incubation 24 hours, then [3H] thymidine four hours; FIG. 2, p<0.01
# Method: as §1, §2
molecule,measurement,setting,value
CC(C)C[C@H](NC(=O)[C@@H](N)Cc1c[nH]cn1)C(=O)N[C@H](C(=O)N[C@@H](Cc1ccccc1)C(=O)N1CCC[C@H]1C(=O)N[C@@H](CC(C)C)C(=O)N[C@@H](CC(=O)O)C(=O)O)[C@@H](C)O [polypeptide P5-1] (H-HLTFPLD-OH),side effects at the applied sites,[1],no side effects and the like were apparent
"polypeptide P5-3: polypeptide of SEQ ID NO: 3, identical to positions 395 to 400 of PEDF (FIFVLRD; listed as Homo sapiens)",side effects at the applied sites,[1],no side effects and the like were apparent
same,thickness of the grafted skin (HE-stained sections),[1],significantly reduced
"polypeptide P5-2: polypeptide of SEQ ID NO: 2, identical to positions 388 to 394 of PEDF (YHLNQP; listed as Homo sapiens)",side effects at the applied sites,[1],no side effects and the like were apparent
same,thickness of the grafted skin (HE-stained sections),[1],significantly reduced
"polypeptide P5: polypeptide of SEQ ID NO: 5, identical to the amino acid sequence of positions 381 to 400 of PEDF (HLTFPLDYHLNQPFIFVLRD; listed as Homo sapiens)",inhibitory effect on MG63 tumor cell proliferation (amount of 5-bromo-2' deoxyuridine incorporation),[2],an inhibitory effect on tumor cell proliferation was confirmed
"PEDF protein: commercially available PEDF protein comprising the amino acid sequence of SEQ ID NO: 6 (Sigma) (protein, listed as Homo sapiens) MQALVLLLCIGALLGHSSCQNPASPPEEGSPDPDSTGALVEEEDPFFKVPVNKLAAAVSNFGYDLYRVRSSTSPTTNVLLSPLSVATALSALSLGAEQRTESIIHRALYYDLISSPDIHGTYKELLDTVTAPQKNLKSASRIVFEKKLRIKSSFVAPLEKSYGTRPRVLTGNPRLDLQEINNWVQAQMKGKLARSTKEIPDEISILLLGVAHFKGQWVTKFDSRKTSLEDFYLDEERTVRVPMMSDPKAVLRYGLDSDLSCKIAQLPLTGSMSIIFFLPLKVTQNLTLIEESLTSEFIHDIDRELKTVQAVLTVPKLKLSYEGEVTKSLQEMKLQSLFDSPDFSKITGKPIKLTQVEHRAGFEWNEDGAGTTPSPGLQPAHLTFPLDYHLNQPFIFVLRDTDTGALLFIGKILDPRGP",thickness of the grafted skin,"[3]; FIG. 9, p<0.05",significantly reduced
same,number of capillary endothelial cells (CD31-positive),"[3]; FIG. 12, p<0.05",significantly reduced
same,frequency of Ki-67 expressing positive cells in the basal cell layer,"[3]; FIG. 14, p<0.05",significantly reduced
same,thickness of the grafted skin,"[4]; FIG. 11, p<0.05",significantly reduced
same,number of capillary endothelial cells (CD31-positive),"[4]; FIG. 13, p<0.05",significantly reduced
same,frequency of Ki-67 expressing positive cells in the basal cell layer,"[4]; FIG. 15, p<0.05",significantly reduced
"polypeptide F3: polypeptide comprising the amino acid sequence of positions 301 to 418 of PEDF (SEQ ID NO: 4) (protein, listed as Homo sapiens) IDRELKTVQAVLTVPKLKLSYEGEVTKSLQEMKLQSLFDSPDFSKITGKPIKLTQVEHRAGFEWNEDGAGTTPSPGLQPAHLTFPLDYHLNQPFIFVLRDTDTGALLFIGKILDPRGP",inhibitory effect on tumor cell proliferation (amount of [3H] thymidine incorporation by MG63),[5],a strong inhibitory effect on tumor cell proliferation was confirmed
